Literature values as cited in publication PMC12394151.

Biological target: IL-6R (Homo sapiens) (UniProt P08887)
Experiment: BLI
Conditions: cited from earlier work

IL-6R (Homo sapiens), sequence (P08887 20-355): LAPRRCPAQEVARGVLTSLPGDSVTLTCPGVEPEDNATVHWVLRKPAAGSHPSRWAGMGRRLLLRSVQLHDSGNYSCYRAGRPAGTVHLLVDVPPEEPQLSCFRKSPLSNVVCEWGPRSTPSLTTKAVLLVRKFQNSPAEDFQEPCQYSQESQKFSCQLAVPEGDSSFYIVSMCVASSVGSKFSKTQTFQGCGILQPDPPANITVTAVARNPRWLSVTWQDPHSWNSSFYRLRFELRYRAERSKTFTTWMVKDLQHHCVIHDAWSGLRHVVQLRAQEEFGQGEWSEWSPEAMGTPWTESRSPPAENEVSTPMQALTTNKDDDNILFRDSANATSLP

Q: With Tocilizumab as the substance, how does the Kd read?
A: 38.8 nM
